# Results as given in the DeepSol protein solubility set.
# Experiment: soluble on expression in E. coli; label from the status in PepcDB or PDB records
row,Sequence,soluble on expression in E. coli
1,MSLSTMGPLGGISVIFDLDGTLVDSEPHYYEAGRRTLAEYGVPDFSWADHEAYVGISTQETVADWKRRYGLRATVEELLAVKNRHYLGLARTSARAYPEMRKFVELLAGEGVPMAVASGSSPEAIAAILARTGLDAHLRTVVSADEVARGKPAPDVFLEAARRLGTEPARCVVLEDAAPGAAAAHAAGMRCIAIPYVSGQADAPEFATAELLVRGGQEEFTARAAHDWLRTDGNATRETEGHHHHHH,soluble
2,RWQEGNRITLLENGDQYYPALFAAIGRASRRVILESFIWFEDEVGRRLHAVLLEAARRGIQVEVLLDGYGSPDLSDEFVGELTAAGVIFRYYDPRPKLMGMRTNLFRRMHRKIVVIDDTTAFVGGINYSAEHMSDYGPEAKQDYAVQVEGPVVLDILQFELENLPNSETARRWWRRRRH,not soluble
3,VANITFSSPVMAKDVTVYAVAGDRGTILAVAKSHSIPIPFDCQDGECGSCLVQVEHFNPKAKAAVALTEKEKEVLRQLGKITKEEIVDAEVNDIPPRYRLACQCFVRNEDILVKFEGDKTKPQRLAVTPAAAHYKGGMEINTPQEFFSYAAKVEEDAALHYDSLAKAMADAGNAPVAKLFAQLAEFSRLHLAEVKSRAGSIDLSKSVPPDYAWPDHATPERAAVWASDTTLTRLGALKAALQGERRGYEFYRAVEATTKSSEVAAAAKEFVNEEAEHVRILEAWITQEEWSLKHAAKAAENA,not soluble
4,MAHHHHHHMITGGSEKLLTKDSVAQYIRRVSSGLLYESAVLPIQFLIRGFRDIVPCEALASLGEQEMMSLLCGCRANDKKPLWTLAEIKSILVAEHGYQTDSPQMTMLQNILANRLTPAEQRSFLLFCTGCPRLPVGGVGALGAITVVKRSDFTMFHGSSGRNSGGSDGIGGADRKEQNPKQPGEWNSLPNETDWPLPSVNTCFRYLKLPPYPTEDLMYKKLRLSIMQGGETFQLS,not soluble
5,MVLEVNQAIVNESLQTEQVMEQLSSTVDVIVDNIEKYTNAARYGKGNNYALNNLRTAVQNQFPLVDWLLSTSLSQMIENAWQNGSLPTVTDEDGNVYLKAPLNVFTTPPKDTKGECCWLPFDIAACGGKAPINILCLKDCVDMLNHLLDRKLKVQSNDLIGFFKQAGQTYEEVRDFMNRESMAFYTANTIVNGQLDVTTPILKKFHGLMEILKRPEVFKMQGTNILAAFDSIGYRMDVLGGSFIFAAHPLTVASIKNAIRPNRYGILPDGWTINGESIFYKGAQVLPDKTVPVDVENGTGVIWQLSGESVGVFLGTTLRPAEDYIIRNQFTTTNDVNKGCATECDIYYNLGSVVTNNVARLAVITDVPLAAGINAYSLANLLDRVYVETLAP,not soluble
6,MSTHNTHINETMQRNGRNNMAEHRGGSGNFAEDREKASDAGRKGGQHSGGNFKNDPQRASEAGKKGGQQSGGNKSGKS,not soluble
7,MLKQSLATLLLCSTLSPLAVVLPTLAGPGDGGMGWGAKVENLNLTPEQRQNLQAIRQRYQSQIEETRTQLRTAKDELRRLMASNASDEQIRAKHAQVQQLQQKLATLRFESMLATRKILTPEQRQALAERMQNRQGQRRLERLEHHHHHH,soluble
8,MSNNGSSPLVLWYNQLGMKDVDRVGGKNASLGEMITNLSGMGVSVPNGFATTADAFNQFLDQSGVNQRIYELLDKTDIDDVTQLAKAGAQIRQWIIDTPFQPELENAIREAYAQLSADDENASFAVRSSATAEDMPDASFAGQQETFLNVQGFDAVLVAVKHVFASLFNDRAISYRVHQGYDHRGVALSAGVQRMVRSDLASSGVMFSIDTESGFDQVVFITSAWGLGEMVVQGAVNPDEFYVHKPTLAANRPAIVRRTMGSKKIRMVYAPTQEHGKQVKIEDVPQEQRDIFSLTNEEVQELAKQAVQIEKHYGHPMDIEWAKDGHTGKLFIVQARPETVRSRGQVMERYTLHSQGKIIAEGRAIGHRIGAGPVKVIHDISEMNRIEPGDVLVTDMTDPDWEPIMKKASAIVTNRGGRTCHAAIIARELGIPAVVGCGDATERMKDGENVTVSCAEGDTGYVYAELLEFSVKSSSVETMPDLPLKVMMNVGNPDRAFDFACLPNEGVGLARLEFIINRMIGVHPRALLEFDDQEPQLQNEIREMMKGFDSPREFYVGRLTEGIATLGAAFYPKRVIVRLSDFKSNEYANLVGGERYEPDEENPMLGFRGAGRYVSDSFRDCFALECEAVKRVRNDMGLTNVEIMIPFVRTVDQAKAVVEELARQGLKRGENGLKIIMMCEIPSNALLAEQFLEYFDGFSIGSNDMTQLALGLDRDSGVVSELFDERNDAVKALLSMAIRAAKKQGKYVGICGQGPSDHEDFAAWLMEEGIDSLSLNPDTVVQTWLSLAELKK,not soluble
9,MGLAASEALQGSEQEINSAFSNQITPVISGDYIVWQDERDGNWDIYMYDMSAGRTETSLFNGPKDEIEPAISGSRVVLADNRRGNYDIYMYDISTKKEVQVTSDKSEQKEPAISEDIIVWTDRRNQNTDIYMYDLTTKEETRITDDKADQSQPAVWGNIIVWKDTRNGNEDIYMYDISAGKESPVVMDSAAQTNPVIEGDYIVWEDRRAGNLDIYMYEISTGKEKPVCTDPSPQKTPAISDGRIVWADGRIKGTNIFIYDIATGQEKTVSTASEYESNPSIDGNRIVWQDKRKGAMDIFMFTEDASETESTAGEKTEAETGSKAPLGIYPVSAGVIAAYLMINSGKKGKRKTLEHHHHHH,not soluble
10,MTYRELVERQLAVRHADLELGLSRAREQEPFVIHVSDLLDKAGIEYAVRMDKDFQTTFHLEYPITNYDTFKRAVWQTLGAYYCVCNDGDGLEIASNRPDGYAVRIVFGDVPV,not soluble
11,MSAEFERLLAQFERFQSKIKKVDDQLANVERMQSEIAELEATASNADRSITIVAGPGGAIKDIQLTDKALSQQPQALSAALMSTIQEAVAEAARKQAAIVDDHMGGQLNVTDQVLETQAQLFGTSPQELRERMEQERPIRQTPLRPEEEYHEDYSHQDFLGSDQEQQSPPPPPAPSGGSAGDEFLQNLFNNDDHR,not soluble
12,MADGPDKKRRKLTSALKDAIGAHSQKPEENIEKPIALALISDNKAAQDLLNKIQASRRPQAILEATLKICKEKKSEAHVDEAFLSIFRKHFSILGVDSALACWKLIEEHLNSSESINEIRIANEFISTSNLLGHGFGKLLQNMKQGIPVVIQNTWRQERKADALALAYPFLSLLLADQVYGDHQNLESLAEFWKNQVLPEKSMKKDFGMRMVSALAGGEPGQLPETKIDENQLEMLSKIYENHLEFYTGILSESTCSQLLAKVIEDNLAKNELKQLARRCQTAEVCMSPCIYYAMISVLRSTFDLNDSELIFIENLKTLKLKEITKHLPSIINSCSNTRQITASKKLKNLENLQDFLHNVTEKPENDNFSAAFALLSINISLIFDNWNFCEKILKTLPKDVLEKLIKAGKGSENENILKVFKKVAQEAAPVKFVNRTAADVAEKLREPEFAVAEALSLLQGVHTAETKKEVFDSVVKFVEEIPGAESIDEMKLFKLIIEMYGGSQLESLAVQVVFSRIAADGWTEMDRAPGTEKSDESWFTVLVETIDLLDIAMKSAKNSVLKSFTALFCQLFSQVLKNSQKFVRNSLNAVASRTLSPEMETEFVLRRHKLSQDLARLVDAMKRNESYFAMLTASIIGDAVFYGSDSLLAMSKLHSLADKNASALLATNLPVVERTRYKKFLSTITRASKRIY,not soluble
13,MKVCKFEKMKEEDEIRQVINYILKEHPYVVVVPTLTQLQEWLQDISISWFHEEDSASHTTINNIEEYCCTLADHLITDLPLNTDIKKYIRECIEKMHKLVEDKADLLIDKIIKAEIYRLSGELFACCLRQHGLNARTLDTGTFMQMNLERKPDIPYIQESIRQYINENRDTDIFIAPLSLCKNVYGEIDFMNEKRNDYYATVLASIFEADEIILSTELTNIYANRNCAREQHSLTYTEAEQLINSGVHLIYTDCITLAARSNIVIRLIDTHDLETERLYISSHDTESSVKAIIVQDSVTFVRFTSLNVLPGYLLMGKLLEVINKYQINVISMASSNVSVSMILTASRDTLRIIQRELHKYTEMVVDENMSVIHIIGSLHWERTQLESNIMETIRHIPISLISYGGSDHCFTISVHTADKKQLLNSLSQRFLERLSALEHHHHHH,not soluble
14,MEDNIRIGKIILNLSNKISRQLNKEASAFGLTGVQAKLIGFIHHRSSTQDIFQKDIEEEFDIRRSSVTSALQLMEKKGYIKRVSVSDDARLKKIVLTEKGLELDKKVYDAIIKLENSLINEFDNDELHVLIDSLDRISKKIVDLEHHHHHH,soluble
15,MGHHHHHHSHANSIDLIGYVHQPVQFDSTLDGKFWAGTVISHEPSSDSKSESDSSSNFWIPVLFEGDLAHTANSYLKKNDRVHITGQILGDVIQSGANSDQAHVQLFKSFHGSFSHQVMVRD,not soluble
